Here are results for two molecules from article PMC7013464.

The target in the assay is Gab2 608-620 (Homo sapiens), Q9UQC2. The experiment in a line: flow.

B1: SHP2 N-SH2, Q06124 (protein)
chain: WFHPNITGVEAENLLLTRGVDGSFLARPSKSNPGDFALSVRRNGAVTHIKIQNTGDYYDLYGGEKFATLAELVQYYMEHHGQLKEKNGDVIELKYPL
The molecule B1 yielded a dissociation constant Kd of 1.7 nM.

B2: SHP2 N-SH2, Q06124 (protein)
chain: WFHPNITGVEAENLLLTRGVDGSFLARPSKSNPGDFSLSVRRNGAVTHIKIQNTGDYYDLYGGEKFATLAELVQYYMEHHGQLKEKNGDVIELKYPL
B2 displayed a Kd of 5.3 nM.
